{"source": "patent US20160039933A1", "about": "(OXFORD BIOTHERAPEUTICS, published 2016)", "binders": {"B1": {"name": "PTA001_A4 monoclonal antibody (Fab, V domains shown)", "VH": "EVQLQQSVAELVKPGASVKMSCKVSGYTLTDHTIHWMKQRPEQGLEWIGYIYPRDGITGYNEKFKGKATLTADTSSSTAYMQLNSLTSEDSAVYFCARWGYSYRNYAYYYDYWGQGTTLTVSS", "VL": "DIVMSQSPSSLAVSVGEKVTMSCKSSQSLLHSSNQKNYLAWYQQKPGQSPKVLIYWASTRESGVPDRFTGSGSGTDFTLTITSVKSEDLAVYYCQQYYSYPWTFGGGTRLEIKR"}}, "key": {"[1]": {"target": "T1, Cadherin-17 protein (92 kDa) in lysates of colorectal cancer cell lines (human, UniProt Q12864 23-832)", "T1 construct": "Same natural protein as m15, here denatured on a Western blot (band at 92 kDa); also called CDH17", "T1 sequence (looked up)": "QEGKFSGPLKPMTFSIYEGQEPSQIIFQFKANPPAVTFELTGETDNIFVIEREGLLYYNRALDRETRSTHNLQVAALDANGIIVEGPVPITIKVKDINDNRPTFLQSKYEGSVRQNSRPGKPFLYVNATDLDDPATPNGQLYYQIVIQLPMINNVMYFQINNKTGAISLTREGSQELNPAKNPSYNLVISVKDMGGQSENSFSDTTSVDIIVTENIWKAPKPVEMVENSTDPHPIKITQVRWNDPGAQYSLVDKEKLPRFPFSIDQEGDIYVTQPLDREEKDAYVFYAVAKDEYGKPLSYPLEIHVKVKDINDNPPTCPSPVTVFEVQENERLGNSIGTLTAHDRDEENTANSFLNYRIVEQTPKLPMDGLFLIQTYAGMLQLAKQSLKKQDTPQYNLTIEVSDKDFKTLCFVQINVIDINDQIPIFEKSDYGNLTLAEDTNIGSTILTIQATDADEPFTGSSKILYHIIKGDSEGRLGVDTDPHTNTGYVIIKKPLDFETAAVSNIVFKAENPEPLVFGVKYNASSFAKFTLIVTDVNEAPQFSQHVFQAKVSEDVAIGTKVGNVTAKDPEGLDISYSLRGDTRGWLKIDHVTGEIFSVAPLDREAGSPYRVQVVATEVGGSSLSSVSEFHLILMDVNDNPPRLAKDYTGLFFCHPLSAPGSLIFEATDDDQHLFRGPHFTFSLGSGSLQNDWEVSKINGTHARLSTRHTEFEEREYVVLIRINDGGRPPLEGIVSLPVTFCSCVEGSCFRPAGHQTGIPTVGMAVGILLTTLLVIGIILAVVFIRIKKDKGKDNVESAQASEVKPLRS", "assay": "Western blot of colorectal cancer cell line lysates, antibody diluted 1:500", "experimental": "Snap frozen cell pellets were lysed in modified RIPA buffer (50 mM Tris-HCl, pH 7.4, 1% NP-40, 0.25% Na-deoxycholate, 150 mM NaCl, 1 mM EDTA) containing protease inhibitors (Roche) and cleared by spinning down at 18,000 g for 15 min at 4 C. The 4×LDS sample loading buffer (Invitrogen Inc.) was added to the cleared lysate to a final concentration of 1×; sample was heated for 10 min at 70° C. and kept at −80° C. afterwards. Before loading on a gel samples were re-heated.\nMembrane was incubated with animal-free blocker (Vector) and probed with anti-Cadherin-17 antibody in animal-free blocker at 1:500 dilution, at 4 C, for 14-18 h, rotating. The secondary was anti-mouse DyLight® 488 conjugate (Pierce).\nA clear signal was detected at a size corresponding to the Cadherin-17 protein (92 kDa) in 11 of the 14 chosen colorectal cell lines for all 5 Cadherin-17 antibodies (PTA001_A3, PTA001_A4, PTA001_A6, PTA001_A8 and PTA001_A9). […] Cell lines were carefully selected for different genetic backgrounds relevant to the initiation and progression of CRC (RER+=replication error positive tumor phenotype; RER−=replication error deficient tumor phenotype; p53 wild type or mutant and APC wild type or mutant genotype)."}, "[2]": {"target": "T2, cell-surface human Cadherin-17 (human, UniProt Q12864 23-832)", "T2 construct": "whole, on cells; Endogenous protein on cells; also called Liver-intestine cadherin; LI-cadherin", "T2 sequence (looked up)": "T1 sequence (looked up)", "assay": "flow cytometry (FACS) on LoVo cells, antibody titration 0.005-10 ug/ml"}}}
{"binder": "B1", "values": [{"measurement": "binding result", "setting": "[1]", "value": "binds"}, {"measurement": "binding result", "setting": "[2]", "value": "binds"}]}
